Key:
[1] = molecular target: T1, native full length human ADAMTS-13 (wild type)
T1 chain: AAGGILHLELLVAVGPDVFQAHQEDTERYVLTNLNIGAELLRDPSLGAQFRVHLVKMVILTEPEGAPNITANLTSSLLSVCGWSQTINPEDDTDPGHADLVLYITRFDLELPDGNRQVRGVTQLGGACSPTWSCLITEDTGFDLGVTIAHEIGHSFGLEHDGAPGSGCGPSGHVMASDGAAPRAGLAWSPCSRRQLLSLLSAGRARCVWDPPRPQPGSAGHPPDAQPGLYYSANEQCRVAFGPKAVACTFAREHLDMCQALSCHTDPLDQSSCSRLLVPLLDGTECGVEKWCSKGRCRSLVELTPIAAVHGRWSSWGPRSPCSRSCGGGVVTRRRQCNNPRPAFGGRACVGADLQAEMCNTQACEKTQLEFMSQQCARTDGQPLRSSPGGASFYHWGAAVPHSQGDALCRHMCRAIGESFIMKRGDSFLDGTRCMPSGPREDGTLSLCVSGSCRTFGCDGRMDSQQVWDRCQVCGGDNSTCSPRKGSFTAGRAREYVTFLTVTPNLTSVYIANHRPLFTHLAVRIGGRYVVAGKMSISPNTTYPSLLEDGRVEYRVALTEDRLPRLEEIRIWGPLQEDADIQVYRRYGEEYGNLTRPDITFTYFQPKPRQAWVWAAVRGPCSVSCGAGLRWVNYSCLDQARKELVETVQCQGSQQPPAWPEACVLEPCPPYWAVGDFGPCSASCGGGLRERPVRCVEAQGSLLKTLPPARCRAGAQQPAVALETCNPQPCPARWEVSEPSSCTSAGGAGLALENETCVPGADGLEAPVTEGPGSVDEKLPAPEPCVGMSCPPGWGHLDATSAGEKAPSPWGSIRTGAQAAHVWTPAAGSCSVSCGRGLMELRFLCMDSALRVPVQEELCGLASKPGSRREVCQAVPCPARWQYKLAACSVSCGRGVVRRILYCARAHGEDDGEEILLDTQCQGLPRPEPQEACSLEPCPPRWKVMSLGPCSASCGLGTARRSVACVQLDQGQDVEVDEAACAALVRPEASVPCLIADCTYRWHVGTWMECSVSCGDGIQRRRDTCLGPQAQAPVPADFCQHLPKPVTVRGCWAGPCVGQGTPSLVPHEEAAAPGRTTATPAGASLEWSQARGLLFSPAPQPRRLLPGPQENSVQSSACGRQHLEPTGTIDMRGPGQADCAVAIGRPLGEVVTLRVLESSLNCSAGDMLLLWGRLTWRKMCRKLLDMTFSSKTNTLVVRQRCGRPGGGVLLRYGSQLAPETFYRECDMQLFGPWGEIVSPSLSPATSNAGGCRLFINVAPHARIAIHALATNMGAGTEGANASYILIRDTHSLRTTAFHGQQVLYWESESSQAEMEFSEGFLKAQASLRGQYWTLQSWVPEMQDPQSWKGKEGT

[2] = molecular target: T2, trADAMTS-13^V313D (truncated ADAMTS-13 mutant, Val313 to Asp)
T2 chain: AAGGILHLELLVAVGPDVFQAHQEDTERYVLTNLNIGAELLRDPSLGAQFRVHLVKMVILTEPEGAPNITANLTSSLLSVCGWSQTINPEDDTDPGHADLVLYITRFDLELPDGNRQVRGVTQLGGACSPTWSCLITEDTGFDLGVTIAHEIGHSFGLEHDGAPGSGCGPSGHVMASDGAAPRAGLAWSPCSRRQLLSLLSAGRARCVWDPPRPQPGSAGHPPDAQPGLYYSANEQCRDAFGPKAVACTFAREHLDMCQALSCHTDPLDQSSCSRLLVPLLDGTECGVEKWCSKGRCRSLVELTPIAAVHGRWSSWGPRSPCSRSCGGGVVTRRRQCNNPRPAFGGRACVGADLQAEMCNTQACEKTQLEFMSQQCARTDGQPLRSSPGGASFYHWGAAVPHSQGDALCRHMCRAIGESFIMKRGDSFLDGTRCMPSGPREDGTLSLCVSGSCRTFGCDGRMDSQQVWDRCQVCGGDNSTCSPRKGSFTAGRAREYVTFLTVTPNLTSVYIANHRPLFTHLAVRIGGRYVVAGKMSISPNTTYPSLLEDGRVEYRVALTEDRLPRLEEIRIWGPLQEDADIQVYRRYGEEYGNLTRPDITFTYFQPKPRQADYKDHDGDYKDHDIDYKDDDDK

B1: tissue plasminogen activator (tPA) (protein)
chain: SYQVICRDEKTQMIYQQHQSWLRPVLRSNRVEYCWCNSGRAQCHSVPVKSCSEPRCFNGGTCQQALYFSDFVCQCPEGFAGKCCEIGNSDCYFGNGSAYRGTHSLTESGASCLPWNSMILIGKVYTAQNPSAQALGLGKHNYCRNPDGDAKPWCHVLKNRRLTWEYCDVPSCSTCGLRQYSQPQFRIKGGLFADIASHPWQAAIFAKHRRSPGERFLCGGILISSCWILSAAHCFQERFPPHHLTVILGRTYRVVPGEEEQKFEVEKYIVHKEFDDDTYDNDIALLQLKSDSSRCAQESSVVRTVCLPPADLQLPDWTECELSGYGKHEALSPFYSERLKEAHVRLYPSSRCTSQHLLNRTVTDNMLCAGDTRSGGPQANLHDACQGDSGGPLVCLNDGRMTLVGIISWGLGCGQKDVPGVYTKVTNYLDWIRDNMRP
ADAMTS-13 activity with or without preincubation with tPA (technozym kit) [1]: the activity of both trADAMTS-13 and ADAMTS-13 WT was reduced in the presence of tPA (FIG. 4B) | residual proteolytic activity on vWF after 6 hours with or without tPA [2]: trADAMTS-13^R312K and trADAMTS-13^V313D variants were resistant to inactivation by tPA
